Test results reported in patent US10450368.

Key:
Scl-70 [1] = molecular target: Scl-70 (UniProt P11387); test: AtheNA, Ab 25 ug/ml
Centromere B [2] = molecular target: Centromere B (UniProt P07199); test: AtheNA, Ab 25 ug/ml
Jo-1 [3] = molecular target: Jo-1 (UniProt P12081); test: AtheNA, Ab 25 ug/ml
Sm (Smith antigen) [4] = test: AtheNA, Ab 25 ug/ml
SSA [5] = test: AtheNA, Ab 25 ug/ml
SSB [6] = molecular target: SSB (UniProt P05455); test: AtheNA, Ab 25 ug/ml
Histones [7] = test: AtheNA, Ab 25 ug/ml
RNP (ribonucleoprotein) [8] = test: AtheNA, Ab 25 ug/ml
[9] = molecular target: HIV-1 CH505 transmitted/founder gp120 Env (HIV-1); test: competition ELISA, blocking of CH106 binding to gp120
Scl-70 [10] = molecular target: Scl-70 (UniProt P11387); test: AtheNA, Ab 6.25 ug/ml
Centromere B [11] = molecular target: Centromere B (UniProt P07199); test: AtheNA, Ab 6.25 ug/ml
Jo-1 [12] = molecular target: Jo-1 (UniProt P12081); test: AtheNA, Ab 6.25 ug/ml
Sm (Smith antigen) [13] = test: AtheNA, Ab 6.25 ug/ml
SSA [14] = test: AtheNA, Ab 6.25 ug/ml
SSB [15] = molecular target: SSB (UniProt P05455); test: AtheNA, Ab 6.25 ug/ml
Histones [16] = test: AtheNA, Ab 6.25 ug/ml
RNP (ribonucleoprotein) [17] = test: AtheNA, Ab 6.25 ug/ml
Scl-70 [18] = molecular target: Scl-70 (UniProt P11387); test: AtheNA, Ab 12.5 ug/ml
Centromere B [19] = molecular target: Centromere B (UniProt P07199); test: AtheNA, Ab 12.5 ug/ml
Jo-1 [20] = molecular target: Jo-1 (UniProt P12081); test: AtheNA, Ab 12.5 ug/ml
Sm (Smith antigen) [21] = test: AtheNA, Ab 12.5 ug/ml
SSA [22] = test: AtheNA, Ab 12.5 ug/ml
SSB [23] = molecular target: SSB (UniProt P05455); test: AtheNA, Ab 12.5 ug/ml
Histones [24] = test: AtheNA, Ab 12.5 ug/ml
RNP (ribonucleoprotein) [25] = test: AtheNA, Ab 12.5 ug/ml
[26] = molecular target: HIV-1 CH505 transmitted/founder gp120 Env (HIV-1); test: competition ELISA, blocking of sCD4 binding to gp120
CH505.M19D8gp120 = test: ELISA
[27] = molecular target: CH505.TF mutant gp120 M20 (HIV-1); test: ELISA
CH505w136.B18D8gp120 = test: ELISA
[28] = molecular target: CH505.TF mutant gp120 M8 (HIV-1); test: ELISA
CH505.M9D8gp120/293F = test: ELISA
CH505.w30.12D8gp120 = test: ELISA
CH0505_CON D7gp120/293i = test: ELISA
CH505.M7D8gp120/293F = test: ELISA
[29] = molecular target: CH505.TF mutant gp120 M6 (HIV-1); test: ELISA
CH505.M10D8gp120 = test: ELISA
CH505.M5D8gp120293F = test: ELISA
CH505w030.20D8gp120/293F = test: ELISA
CH505.M11D8gp120/293F = test: ELISA
CH505.M21D8gp120/293F = test: ELISA
CH505w020.14D8gp120 = test: ELISA
Jo-1 [30] = molecular target: Jo-1 (UniProt P12081); test: AtheNA, Ab 50 ug/ml
Sm (Smith antigen) [31] = test: AtheNA, Ab 50 ug/ml
SSA [32] = test: AtheNA, Ab 50 ug/ml
SSB [33] = molecular target: SSB (UniProt P05455); test: AtheNA, Ab 50 ug/ml
Histones [34] = test: AtheNA, Ab 50 ug/ml
Scl-70 [35] = molecular target: Scl-70 (UniProt P11387); test: AtheNA, Ab 25 ug/ml; remark: listed apart in the source
Centromere B [36] = molecular target: Centromere B (UniProt P07199); test: AtheNA, Ab 25 ug/ml; remark: listed apart in the source
Jo-1 [37] = molecular target: Jo-1 (UniProt P12081); test: AtheNA, Ab 25 ug/ml; remark: listed apart in the source
Sm (Smith antigen) [38] = test: AtheNA, Ab 25 ug/ml; remark: listed apart in the source
SSA [39] = test: AtheNA, Ab 25 ug/ml; remark: listed apart in the source
SSB [40] = molecular target: SSB (UniProt P05455); test: AtheNA, Ab 25 ug/ml; remark: listed apart in the source
Histones [41] = test: AtheNA, Ab 25 ug/ml; remark: listed apart in the source
RNP (ribonucleoprotein) [42] = test: AtheNA, Ab 25 ug/ml; remark: listed apart in the source
Scl-70 [43] = molecular target: Scl-70 (UniProt P11387); test: AtheNA, Ab 50 ug/ml
Centromere B [44] = molecular target: Centromere B (UniProt P07199); test: AtheNA, Ab 50 ug/ml
Jo-1 [45] = molecular target: Jo-1 (UniProt P12081); test: AtheNA, Ab 50 ug/ml; remark: listed apart in the source
Sm (Smith antigen) [46] = test: AtheNA, Ab 50 ug/ml; remark: listed apart in the source
SSA [47] = test: AtheNA, Ab 50 ug/ml; remark: listed apart in the source
SSB [48] = molecular target: SSB (UniProt P05455); test: AtheNA, Ab 50 ug/ml; remark: listed apart in the source
Histones [49] = test: AtheNA, Ab 50 ug/ml; remark: listed apart in the source
RNP (ribonucleoprotein) [50] = test: AtheNA, Ab 50 ug/ml
[51] = molecular target: BG505 SOSIP.664 gp140 trimer (HIV-1); test: negative stain EM
Centromere B [52] = molecular target: Centromere B (UniProt P07199); test: AtheNA, Ab 50 ug/ml; remark: listed apart in the source
RNP (ribonucleoprotein) [53] = test: AtheNA, Ab 50 ug/ml; remark: listed apart in the source

Sequence of SSB (P05455 whole entry): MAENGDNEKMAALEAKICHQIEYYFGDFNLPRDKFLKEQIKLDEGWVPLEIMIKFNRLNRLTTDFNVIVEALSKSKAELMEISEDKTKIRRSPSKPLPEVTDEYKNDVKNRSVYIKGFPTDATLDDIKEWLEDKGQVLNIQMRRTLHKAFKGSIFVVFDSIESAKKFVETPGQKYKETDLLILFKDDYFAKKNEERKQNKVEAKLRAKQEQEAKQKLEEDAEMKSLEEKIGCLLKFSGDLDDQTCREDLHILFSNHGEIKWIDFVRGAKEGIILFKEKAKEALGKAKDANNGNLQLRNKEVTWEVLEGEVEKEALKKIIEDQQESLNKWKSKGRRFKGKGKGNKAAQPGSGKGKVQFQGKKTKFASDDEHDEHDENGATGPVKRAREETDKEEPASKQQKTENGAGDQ
Sequence of Jo-1 (P12081 whole entry): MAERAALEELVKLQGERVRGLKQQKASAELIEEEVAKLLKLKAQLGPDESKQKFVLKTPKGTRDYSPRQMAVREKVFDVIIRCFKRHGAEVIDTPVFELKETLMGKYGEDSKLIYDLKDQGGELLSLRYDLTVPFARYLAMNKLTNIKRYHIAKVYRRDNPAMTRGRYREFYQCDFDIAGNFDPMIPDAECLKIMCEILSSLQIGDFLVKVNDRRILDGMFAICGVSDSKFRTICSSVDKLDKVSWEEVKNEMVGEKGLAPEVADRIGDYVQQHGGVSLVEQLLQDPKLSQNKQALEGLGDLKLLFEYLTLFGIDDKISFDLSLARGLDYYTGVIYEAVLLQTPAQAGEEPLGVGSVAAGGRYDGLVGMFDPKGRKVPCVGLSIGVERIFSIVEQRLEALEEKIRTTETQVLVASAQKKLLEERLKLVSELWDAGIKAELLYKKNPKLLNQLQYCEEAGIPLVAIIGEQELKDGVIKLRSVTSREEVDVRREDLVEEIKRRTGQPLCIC
Sequence of Scl-70 (P11387 whole entry): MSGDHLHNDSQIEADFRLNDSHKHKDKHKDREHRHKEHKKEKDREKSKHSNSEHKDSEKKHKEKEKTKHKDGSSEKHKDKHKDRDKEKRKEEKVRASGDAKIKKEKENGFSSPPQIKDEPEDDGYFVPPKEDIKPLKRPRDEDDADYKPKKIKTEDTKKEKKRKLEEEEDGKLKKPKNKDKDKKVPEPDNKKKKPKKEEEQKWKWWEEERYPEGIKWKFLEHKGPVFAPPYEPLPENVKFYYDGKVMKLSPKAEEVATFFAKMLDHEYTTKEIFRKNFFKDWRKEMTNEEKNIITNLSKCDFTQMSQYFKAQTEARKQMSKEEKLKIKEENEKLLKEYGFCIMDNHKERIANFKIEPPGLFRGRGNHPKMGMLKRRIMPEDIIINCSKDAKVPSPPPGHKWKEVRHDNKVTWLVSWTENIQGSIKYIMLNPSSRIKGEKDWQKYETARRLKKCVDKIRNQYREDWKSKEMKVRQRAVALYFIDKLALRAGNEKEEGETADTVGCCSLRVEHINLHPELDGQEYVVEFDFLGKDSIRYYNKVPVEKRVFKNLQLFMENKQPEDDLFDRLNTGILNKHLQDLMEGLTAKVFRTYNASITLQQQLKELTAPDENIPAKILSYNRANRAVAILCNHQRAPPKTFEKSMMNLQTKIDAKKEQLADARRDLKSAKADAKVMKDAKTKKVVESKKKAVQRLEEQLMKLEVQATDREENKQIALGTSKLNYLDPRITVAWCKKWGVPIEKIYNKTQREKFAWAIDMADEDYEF
Sequence of Centromere B (P07199 whole entry): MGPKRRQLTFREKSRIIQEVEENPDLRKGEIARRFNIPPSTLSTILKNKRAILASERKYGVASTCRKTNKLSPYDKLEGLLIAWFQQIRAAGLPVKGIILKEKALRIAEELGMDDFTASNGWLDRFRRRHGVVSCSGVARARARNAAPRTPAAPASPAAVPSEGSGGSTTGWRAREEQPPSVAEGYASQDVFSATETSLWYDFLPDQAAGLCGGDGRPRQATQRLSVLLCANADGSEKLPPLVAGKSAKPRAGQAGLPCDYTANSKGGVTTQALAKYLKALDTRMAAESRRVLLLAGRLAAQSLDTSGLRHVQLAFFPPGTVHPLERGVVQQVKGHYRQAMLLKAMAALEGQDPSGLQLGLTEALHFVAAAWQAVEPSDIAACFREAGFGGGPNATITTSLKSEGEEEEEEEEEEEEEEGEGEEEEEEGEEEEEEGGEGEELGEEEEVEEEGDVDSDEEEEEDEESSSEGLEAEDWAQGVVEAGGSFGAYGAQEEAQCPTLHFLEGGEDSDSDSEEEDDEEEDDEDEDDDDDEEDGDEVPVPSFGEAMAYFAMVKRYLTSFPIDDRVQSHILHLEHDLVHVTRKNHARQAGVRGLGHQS

## CH235 IA1 (antibody)
Scl-70 [1]
  AtheNA signal (relative luminescence units): 52
Centromere B [2]
  AtheNA signal (relative luminescence units): 80
Jo-1 [3]
  AtheNA signal (relative luminescence units): 171
Sm (Smith antigen) [4]
  AtheNA signal (relative luminescence units): 110
SSA [5]
  AtheNA signal (relative luminescence units): 150
SSB [6]
  AtheNA signal (relative luminescence units): 197
Histones [7]
  AtheNA signal (relative luminescence units): 99
RNP (ribonucleoprotein) [8]
  AtheNA signal (relative luminescence units): 67
[9]
  IC50: 82.4 µg/mL
Scl-70 [10]
  AtheNA signal (relative luminescence units): 31
Centromere B [11]
  AtheNA signal (relative luminescence units): 87
Jo-1 [12]
  AtheNA signal (relative luminescence units): 129
Sm (Smith antigen) [13]
  AtheNA signal (relative luminescence units): 77
SSA [14]
  AtheNA signal (relative luminescence units): 175
SSB [15]
  AtheNA signal (relative luminescence units): 117
Histones [16]
  AtheNA signal (relative luminescence units): 118
RNP (ribonucleoprotein) [17]
  AtheNA signal (relative luminescence units): 46
Scl-70 [18]
  AtheNA signal (relative luminescence units): 40
Centromere B [19]
  AtheNA signal (relative luminescence units): 81
Jo-1 [20]
  AtheNA signal (relative luminescence units): 152
Sm (Smith antigen) [21]
  AtheNA signal (relative luminescence units): 77
SSA [22]
  AtheNA signal (relative luminescence units): 151
SSB [23]
  AtheNA signal (relative luminescence units): 167
Histones [24]
  AtheNA signal (relative luminescence units): 100
RNP (ribonucleoprotein) [25]
  AtheNA signal (relative luminescence units): 56
[26]
  IC50: > 100 µg/mL
CH505.M19D8gp120
  LogAUC: 2.78
[27]
  LogAUC: 0
CH505w136.B18D8gp120
  LogAUC: 2.36
[28]
  LogAUC: 0
CH505.M9D8gp120/293F
  LogAUC: 0
CH505.w30.12D8gp120
  LogAUC: 2.4
CH0505_CON D7gp120/293i
  LogAUC: 6.89
CH505.M7D8gp120/293F
  LogAUC: 0
[29]
  LogAUC: 6.1
CH505.M10D8gp120
  LogAUC: 7.08
CH505.M5D8gp120293F
  LogAUC: 9.18
CH505w030.20D8gp120/293F
  LogAUC: 4.82
CH505.M11D8gp120/293F
  LogAUC: 2.85
CH505.M21D8gp120/293F
  LogAUC: 0
CH505w020.14D8gp120
  LogAUC: 6.52
Jo-1 [30]
  AtheNA signal (relative luminescence units): 176
Sm (Smith antigen) [31]
  AtheNA signal (relative luminescence units): 104
SSA [32]
  AtheNA signal (relative luminescence units): 149
SSB [33]
  AtheNA signal (relative luminescence units): 217
Histones [34]
  AtheNA signal (relative luminescence units): 100

## DH270IA1 (antibody)
Scl-70 [35]
  AtheNA signal: 1
Centromere B [36]
  AtheNA signal: 5
Jo-1 [37]
  AtheNA signal: 3
Sm (Smith antigen) [38]
  AtheNA signal: 5
SSA [39]
  AtheNA signal: 3
SSB [40]
  AtheNA signal: 6
Histones [41]
  AtheNA signal: 4
RNP (ribonucleoprotein) [42]
  AtheNA signal: 2
Scl-70 [43]
  AtheNA signal: 4
Centromere B [44]
  AtheNA signal: 10
Jo-1 [45]
  AtheNA signal: 5
Sm (Smith antigen) [46]
  AtheNA signal: 5
SSA [47]
  AtheNA signal: 5
SSB [48]
  AtheNA signal: 6
Histones [49]
  AtheNA signal: 9
RNP (ribonucleoprotein) [50]
  AtheNA signal: 2
Scl-70 [10]
  AtheNA signal: 2
Centromere B [11]
  AtheNA signal: 2
Jo-1 [12]
  AtheNA signal: 5
Sm (Smith antigen) [13]
  AtheNA signal: 3
SSA [14]
  AtheNA signal: 5
SSB [15]
  AtheNA signal: 1
Histones [16]
  AtheNA signal: 2
RNP (ribonucleoprotein) [17]
  AtheNA signal: 2
Scl-70 [18]
  AtheNA signal: 2
Centromere B [19]
  AtheNA signal: 3
Jo-1 [20]
  AtheNA signal: 6
Sm (Smith antigen) [21]
  AtheNA signal: 5
SSA [22]
  AtheNA signal: 3
SSB [23]
  AtheNA signal: 6
Histones [24]
  AtheNA signal: 4
RNP (ribonucleoprotein) [25]
  AtheNA signal: 3

## CH103 Fab
[51]
  stoichiometry (Fabs per trimer) (Fabs per trimer): 3

## CH235 IA2 (antibody)
Scl-70 [1]
  AtheNA signal (relative luminescence units): 49
Centromere B [2]
  AtheNA signal (relative luminescence units): 228
Jo-1 [3]
  AtheNA signal (relative luminescence units): 26
Sm (Smith antigen) [4]
  AtheNA signal (relative luminescence units): 256
SSA [5]
  AtheNA signal (relative luminescence units): 43
SSB [6]
  AtheNA signal (relative luminescence units): 36
Histones [7]
  AtheNA signal (relative luminescence units): 302
RNP (ribonucleoprotein) [8]
  AtheNA signal (relative luminescence units): 93
Scl-70 [10]
  AtheNA signal (relative luminescence units): 28
Centromere B [11]
  AtheNA signal (relative luminescence units): 183
Jo-1 [12]
  AtheNA signal (relative luminescence units): 12
Sm (Smith antigen) [13]
  AtheNA signal (relative luminescence units): 204
SSA [14]
  AtheNA signal (relative luminescence units): 18
SSB [15]
  AtheNA signal (relative luminescence units): 15
Histones [16]
  AtheNA signal (relative luminescence units): 207
RNP (ribonucleoprotein) [17]
  AtheNA signal (relative luminescence units): 66
Scl-70 [18]
  AtheNA signal (relative luminescence units): 44
Centromere B [19]
  AtheNA signal (relative luminescence units): 225
Jo-1 [20]
  AtheNA signal (relative luminescence units): 20
Sm (Smith antigen) [21]
  AtheNA signal (relative luminescence units): 279
SSA [22]
  AtheNA signal (relative luminescence units): 34
SSB [23]
  AtheNA signal (relative luminescence units): 31
Histones [24]
  AtheNA signal (relative luminescence units): 287
RNP (ribonucleoprotein) [25]
  AtheNA signal (relative luminescence units): 85
CH505.M19D8gp120
  LogAUC: 0
[27]
  LogAUC: 0
CH505w136.B18D8gp120
  LogAUC: 0
[28]
  LogAUC: 0
CH505.M9D8gp120/293F
  LogAUC: 0
CH505.w30.12D8gp120
  LogAUC: 0
CH0505_CON D7gp120/293i
  LogAUC: 4.77
CH505.M7D8gp120/293F
  LogAUC: 0
[29]
  LogAUC: 1.22
CH505.M10D8gp120
  LogAUC: 0.43
CH505.M5D8gp120293F
  LogAUC: 6.95
CH505w030.20D8gp120/293F
  LogAUC: 0.53
CH505.M11D8gp120/293F
  LogAUC: 0
CH505.M21D8gp120/293F
  LogAUC: 0
CH505w020.14D8gp120
  LogAUC: 1.22
Centromere B [52]
  AtheNA signal (relative luminescence units): 256
Sm (Smith antigen) [31]
  AtheNA signal (relative luminescence units): 259
Histones [34]
  AtheNA signal (relative luminescence units): 371
RNP (ribonucleoprotein) [53]
  AtheNA signal (relative luminescence units): 101
